Patent publication US6881824B1, “Peptides suitable for use in antigen specific immunosuppressive therapy” (Akzo Nobel N.V., priority 1996, dated 2005)

Experiments:
[1] = system: Balb/c mouse; assay: HC gp-39 administration in Balb/c mice (arthritis); format: in vivo; settings: administration of HC gp-39
[2] = biological target: T1, DR4 (DRB1*0401) molecules purified from the homozygous EBV-transformed human B lymphoblastoid cell line … (human, UniProt P01903 26-254)
[3] = biological target: T1, DR4 (DRB1*0401) molecules purified from …; assay: competition binding assay on purified DR4(DRB1*0401)

| Molecule | Arthritic development [1] | Immunological tolerance [1] | IC50 [2] [µM] | binding result [3] |
| --- | --- | --- | --- | --- |
| Human Cartilage glycoprotein 39 [HC gp-39] | delayed and/or suppressed arthritic development | resulted in immunological tolerance | – | – |
| LDRFLCTHIIYSFANI [HC gp-39 peptide 5 (residues 46-61)] | – | – | < 1 | binds |
| DFQGSFCGQDLRFPLT [HC gp-39 peptide 57 (residues 358-373)] | – | – | 1 to 10 | binds |
| FSKIASNTQSRRTFIK (This is probably a misprint) [HC gp-39 peptide 15 (residues 106-121)] | – | – | < 1 | binds |
| SCFPDALDRFLCTHII [HC gp-39 peptide 4 (residues 40-55)] | – | – | 10 to 100 | binds |
| THIIYSFANISNDHID [HC gp-39 peptide 6 (residues 52-67)] | – | – | < 1 | binds |
